# In patent publication US5869271A, “G-beta-gamma regulated phosphatidylinositol-3' kinase” (Onyx Pharmaceuticals, priority 1997, dated 1999):
# B1: p120: catalytic subunit of the G protein-regulated PI3K; the b332 result is for the form after complete thrombin cleavage (protein)
# chain: MELENYEQPVVLREDNRRRRRRMKPRSTAASLSSMELIPIEFVLATSQRNTKTPETALLHVAGHGNVEKMKAQVLLRALETSVSWDFYHRFGPDHFLLVFQKKGEWYEIYDKYQVVQTLDCLRYWEVLHRSPGQIHVVQRHAPSEETLAFQRQLNALIGYDVTDVSNVHDDELEFTRRRLVTPRMAEVAGRDPKLYAMHPWVTSKPLPEYLLKKITNNCVFIVIHRSTTSQTIKVSADDTPGTILQSFFTKMAKKKSLMDIPESQNERDFVLRVCGRDEYLVGETPIKNFQWVRQCLKNGEEIHLVLDTPPDPALDEVRKEEWPLVDDCTGVTGYHEQLTIHGKDHESVFTVSLWDCDRKFRVKIRGIDIPVLPRTADLTVFVEANIQYGQQVLCQRRTSPKPFTEEVLWNVWLEFSIKIKDLPKGALLNLQIYCGKAPALSGKTSAEMPSPESKGKAQLLYYVNLLLIDHRFLLRHGEYVLHMWQLSGKGEDQGSFNADKLTSGTNPDKEDSMSISILLDNYCHPIALPKHRPTPDPEGDRVRAEMPNQLRKQLEAIIATDPLNPLTAEDKELLWHFRYESLKDPKAYPKLFSSVKWGQQEIVAKTYQLLAKREVWDQSALDVGLTMQLLDCNFSDENVRAIAVQKLESLEDDDVLHYLLQLVQAVKFEPYHDSALARFLLKRGLRNKRIGHFLFWFLRSEIAQSRHYQQRFAVILEAYLRGCGTAMLHDFTQQVQVIDMLQKVTIDIKSLSAEKYDVSSQVISQLKQKLENLQNLNLPQSFRVPYDPGLKAGALVIEKCKVMASKKKPLWLEFKCADPTALSNETIGIIFKHGDDLRQDMLILQILRIMESIWETESLDLCLLPYGCISTGDKIGMIEIVKDATTIAKIQQSTVGNTGAFKDEVLSHWLKEKCPIEEKFQAAVERFVYSCAGYCVATFVLGIGDRHNDNIMISETGNLFHIDFGHILGNYKSFLGINKERVPFVLTPDFLFVMGTSGKKTSLHFQKFQDVCVKAYLALRHHTNLLIILFSMMLMTGMPQLTSKEDIEYIRDALTVGKSEEDAKKYFLDQIEVCRDKGWTVQFNWFLHLVLGIKQGEKHPA
# Molecular target: free p120 PI3K catalytic subunit (Sus scrofa, UniProt O02697)
# Assay: PI3K assay on free recombinant p120 (Sf9-derived)
# Format: biochemical, porcine
# Procedure: Assays contained either 7 nM p101/p120 or 36 nM p120 alone (final concentrations) which were incubated with various reagents; 10 mM NaF and 30 μM AlCl3 (A/F) ; 1 μM Gβγ-subunits (βγ); 2 μM Gα-GDP; 100 nM wortmannin (W) or 50 μM tyrosine phosphorylated peptide (PY) for a total of 15 minutes (at 0° C.) prior to starting the assays by adding [γ^32 P]-ATP; [^32 P]-incorporated into [^32 P]-PtdIns(3,4,5) P3 was quantified. The data shown are means (n=2).
# Purified aliquots of Sf9 -derived or pig neutrophil cytosol-derived PI3K were diluted in ice-cold 0.12M NaCl, 25 mM HEPES, 1 mM EGTA, 1 mM DTT, 1 mg-ml^-1 BSA, 1% betaine, 0.02%, w/v, Tween-20, pH 7.4, 0° C. to an appropriate extent, then 5 μl aliquots were stored on ice until assayed. […] 30 μl of a mixture of phospholipids with or without Gβγs and/or Gαs (either GDP-bound or activated) was added to the 5 μl fractions, or 10 μl of beads, and mixed. After 10 minutes on ice, 5-10 μl of last wash buffer, supplemented with MgCl2 to give a final concentration in the extant assay volume of 3.5 mM, was added and mixed. Six minutes later, 5 μl of last wash buffer was added (to give a final assay volume of 50 μl) containing [^32 ]-ATP (typically 10 μCi assay^-1, Amersham, PB10168) and 3.5 mM MgCl2, tubes were mixed and transferred to a 30° C. water bath. […]
# Sequence of free p120 PI3K catalytic subunit (O02697 whole entry): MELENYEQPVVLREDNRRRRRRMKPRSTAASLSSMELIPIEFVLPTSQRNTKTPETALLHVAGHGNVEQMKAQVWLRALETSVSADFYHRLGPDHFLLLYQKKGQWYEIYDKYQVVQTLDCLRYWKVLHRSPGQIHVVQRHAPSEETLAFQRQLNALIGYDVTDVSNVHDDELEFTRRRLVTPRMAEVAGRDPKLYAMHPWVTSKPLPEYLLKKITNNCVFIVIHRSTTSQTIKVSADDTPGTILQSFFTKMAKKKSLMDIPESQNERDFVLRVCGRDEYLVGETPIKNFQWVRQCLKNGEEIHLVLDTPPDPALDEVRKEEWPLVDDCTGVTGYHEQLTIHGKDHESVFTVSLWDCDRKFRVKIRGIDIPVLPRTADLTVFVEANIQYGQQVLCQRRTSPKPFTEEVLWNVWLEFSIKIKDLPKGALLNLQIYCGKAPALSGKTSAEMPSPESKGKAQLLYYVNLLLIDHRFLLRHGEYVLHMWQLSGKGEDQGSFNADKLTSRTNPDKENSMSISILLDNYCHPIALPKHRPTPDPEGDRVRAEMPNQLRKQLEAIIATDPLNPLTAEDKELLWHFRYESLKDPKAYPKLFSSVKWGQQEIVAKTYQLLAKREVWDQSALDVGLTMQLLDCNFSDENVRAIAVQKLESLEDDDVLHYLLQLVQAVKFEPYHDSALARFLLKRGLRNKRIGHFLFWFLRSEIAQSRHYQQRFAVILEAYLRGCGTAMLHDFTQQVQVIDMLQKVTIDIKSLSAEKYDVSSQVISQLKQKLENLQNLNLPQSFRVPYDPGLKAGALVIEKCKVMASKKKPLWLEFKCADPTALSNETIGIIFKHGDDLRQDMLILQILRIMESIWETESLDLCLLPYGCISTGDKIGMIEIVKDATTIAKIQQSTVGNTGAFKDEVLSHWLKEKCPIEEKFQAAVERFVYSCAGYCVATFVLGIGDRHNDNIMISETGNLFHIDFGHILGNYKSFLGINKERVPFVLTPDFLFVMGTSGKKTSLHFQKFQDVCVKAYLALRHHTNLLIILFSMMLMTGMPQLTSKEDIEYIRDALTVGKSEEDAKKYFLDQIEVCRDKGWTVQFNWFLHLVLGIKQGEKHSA
molecule,measurement,value
B1,reduction of p120 PI3K catalytic activity by removal of about 40 amino terminal residues (thrombin cleavage),20-30%
